B1: EcAroY (Enterobacter cloacae) (protein)
chain: MQNPINDLRSAIALLQRHPGHYIETDHPVDPNAELAGVYRHIGAGGTVKRPTRTGPAMMFNSVKGYPGSRILVGMHASRERAALLLGCVPSKLAQHVGQAVKNPVAPVVVPASQAPCQEQVFYADDPDFDLRKLLPAPTNTPIDAGPFFCLGLVLASDPEDTSLTDVTIHRLCVQERDELSMFLAAGRHIEVFRKKAEAAGKPLPVTINMGLDPAIYIGACFEAPTTPFGYNELGVAGALRQQPVELVQGVAVKEKAIARAEIIIEGELLPGVRVREDQHTNTGHAMPEFPGYCGEANPSLPVIKVKAVTMRNHAILQTLVGPGEEHTTLAGLPTEASIRNAVEEAIPGFLQNVYAHTAGGGKFLGILQVKKRQPSDEGRQGQAALIALATYSELKNIILVDEDVDIFDSDDILWAMTTRMQGDVSITTLPGIRGHQLDPSQSPDYSTSIRGNGISCKTIFDCTVPWALKARFERAPFMEVDPTPWAPELFSDKK
notes: recombinant, purified from E. coli (UbiX co-expressed), reconstituted in vitro with prFMN and oxidised; UbiD family; homohexamer; about 495 residues
B2: KpAroY (Klebsiella pneumoniae subsp. pneumoniae MGH 78578) (protein)
chain: MTAPIQDLRDAIALLQQHDNQYLETDHPVDPNAELAGVYRHIGAGGTVKRPTRIGPAMMFNNIKGYPHSRILVGMHASRQRAALLLGCEASQLALEVGKAVKKPVAPVVVPASSAPCQEQIFLADDPDFDLRTLLPAPTNTPIDAGPFFCLGLALASDPDDASLTDVTIHRLCVQGRDELSMFLAAGRHIEVFRQKAEAAGKPLPITINMGLDPAIYIGACFEAPTTPFGYNELGVAGALRQRPVELVQGVSVPEKAIARAEIVIEGELLPGVRVREDQHTNSGHAMPEFPGYCGGANPSLPVIKVKAVTMRNNAILQTLVGPGEEHTTLAGLPTEASIWNAVEAAIPGFLQNVYAHTAGGGKFLGILQVKKRQPADEGRQGQAALLALATYSELKNIILVDEDVDIFDSDDILWAMTTRMQGDVSITTIPGIRGHQLDPSQTPEYSPSIRGNGISCKTIFDCTVPWALKSHFERAPFADVDPRPFAPEYFARLEKNQGSAK
notes: recombinant, purified from E. coli (UbiX co-expressed), reconstituted in vitro with prFMN and oxidised; UbiD family; about 495 residues

Experiments:
[1] = substrate: O=C(O)c1ccc(O)c(O)c1; test: decarboxylation kinetics, purified enzyme reconstituted in vitro with prFMN; assay type: biochemical, Enterobacter cloacae; details: apparent; prFMN iminium cofactor, after oxidative maturation
[2] = substrate: O=C(O)c1ccc(O)c(O)c1; test: as above; assay type: biochemical, Klebsiella pneumoniae; details: apparent; prFMN iminium cofactor, after oxidative maturation

Protein	Km [1] [µM]	kcat [1]	Km [2] [µM]	kcat [2]
B1	61 ± 17	4.6±0.4 s^-1 (printed as v max ^app)		
B2			96 ± 23	4.7±0.4 s^-1 (printed as v max ^app)

Source: article PMC5656893, “Regioselective para‐Carboxylation of Catechols with a Prenylated Flavin Dependent Decarboxylase” (Angewandte Chemie (International Ed. in English), 2017)
